Assays:
[1] = target: T1, HIV-1 reverse transcriptase (HXB2, group M subtype B) (Human immunodeficiency virus 1, UniProt P04585 SEQ:1-560); assay: inhibition; DDDP, K+ buffer; conditions: tags: expressed in E. coli
Method: (§1) Reactions were assembled in reaction buffer (50 mM Tris-HCl pH 8.3, 75 mM KCl, 5 mM MgCl2, 10 mM DTT) with 30 nM primer, 45 nM template and 0.2 mM dNTPs. After annealing primer and template strands, DNA aptamers were added. Reactions were initiated by adding RT to a final concentration of 3 nM active site. […] Additional reactions included 1 μM and 3 μM where indicated. After 10 min at 37° C., reactions were quenched by addition of 2 volumes (20 μl) of gel-loading buffer (95% formamide with 0.01% bromophenol blue). For reactions assessing monovalent ion dependence, 75 mM KCl was replaced with 75 mM NaCl where indicated.

[2] = target: T1, HIV-1 reverse transcriptase (HXB2, …); assay: inhibition; DDDP, K+ buffer; conditions: tags: expressed in E. coli; remark: listed apart in the source
Method: FIG. 13 Sequence plasticity of stems and loops. Inhibition of RT DDDP activity by aptamer variants. Aptamer concentrations (nM) are indicated above the lanes. (A) Aptamer TKQ4 retains inhibition even though it carries a G-to-A mutation in the fourth of the 12 G's that comprise the quadruplex. […] Similar titrations were carried out in triplicate for all aptamers for which IC50 values are reported. Aptamer R1T was included in subsequent panels to provide a consistent reference baseline of inhibition. (C) RT inhibition by aptamer SN, in which quadruplex loops are replaced with hexaethylene glycol. (D) and (E), RT inhibition by aptamers carrying mutations in helical stem domain, as detailed in text.
as §1

[3] = target: T1, HIV-1 reverse transcriptase (HXB2, …); assay: inhibition; DDDP, K+ buffer; p136 states not significantly different from L1; conditions: tags: expressed in E. coli; hairpin + G4, T16 connector
Method: as §1

[4] = hairpin + G4, termini within quadruplex

For GGGTTCGCCTGATTAGCGATACTCAGGCGTTGGGTGGGTGGG (ssDNA) [Bcut], the IC50 [1, 4] was 48 nM.

CGCCTGATTAGCGATACTCAGGCGTTGGGCGGGCGGGCGGG (ssDNA) [R1C] was tested, and the IC50 ([2]; hairpin + G4) was 26 nM.

CGCCTGATTAGCGATACTCAGGCGAAGGGTGGGTGGGTGGG (ssDNA) [L6] gave an IC50 ([1]; hairpin + G4, A2 connector) of 13 nM.

Work on CGCCTGATTAGCGATACTCAGGCGTTGGGTGGGTGGGTGGG (ssDNA) [R1T] yielded an IC50 ([1]; hairpin + G4) of 14 nM.

CGCCTGATTAGCGATACTCAGGCGTTGGGAGGGAGGGAGGG (ssDNA) [R1A] showed an IC50 ([2]; hairpin + G4) of 18 nM.

CGCCTGATTAGCGATACTCAGGCGTTGGGTTGGGTTGGGTTGGG (ssDNA) [R2T] showed an IC50 ([2]; hairpin + G4) of 13 nM.

GGGTGGGTTGCGGACTCATAGCGATTAGTCCGCTTGGGTGGG (ssDNA) [Acutrev] was tested, and the IC50 [1, 4] was 33 nM.

For CGCCTGATTAGCGATACTCAGGCGTTGGGTTTTGGGTTTTGGGTTTTGGG (ssDNA) [R4T], the IC50 ([2]; hairpin + G4) was roughly 35 nM.

B1: RT6-B (Vor) (ssDNA)
DNA: CGCCTGATTAGCGATACTCAGGCGTTAGGGAAGGGCGTCGAAAGCAGGGTGGG
In the case of B1, the IC50 ([1]; hairpin + G4) is reported as 5.7 nM.

Binder GGGTGGGTTCGCCTGATTAGCGATACTCAGGCGTTGGGTGGG (ssDNA) [Acut] has an IC50 ([1]; hairpin + G4, termini between 2nd and 3rd G triplets) of 22 nM.

B2: RT6 (ssDNA)
DNA: ATCCGCCTGATTAGCGATACTCAGGCGTTAGGGAAGGGCGTCGAAAGCAGGGTGGGACTTGAGCAAAATCACCTGCAGGG
In the case of B2, the IC50 ([1]; hairpin + G4) is reported as 36 nM.

B3: L10 (ssDNA)
DNA: CGCCTGATTAGCGATACTCAGGCGTTTTTTTTTTTTTTTTGGGTGGGTGGGTGGG
B3 showed an IC50 [3] of 120 nM.

B4: RT6-A (ssDNA)
DNA: ATCCGCCTGATTAGCGATACTCAGGCGTTAGGGAAGGGTAGCGATACAGGGTGGG
With B4 the IC50 ([1]; hairpin + G4) was 16 nM.

CGGATTAGCGATACTCCGTTGGGTGGGTGGGTGGG (ssDNA) [S2] showed an IC50 ([2]; hairpin + G4) of 110 nM.

Binder CGCCTGACCCTTCAGGCGTTGGGTGGGTGGGTGGG (ssDNA) [S4] has an IC50 ([2]; hairpin (CCCT tetraloop) + G4) of 32 nM.

GGGTGGGTGGGTTCGCCTGATTAGCGATACTCAGGCGTTGGG (ssDNA) [Ecut] was tested, and the IC50 [1, 4] was 99 nM.

B5: R8T (ssDNA)
DNA: CGCCTGATTAGCGATACTCAGGCGTTGGGTTTTTTTTGGGTTTTTTTTGGGTTTTTTTTGGG
B5 gave an IC50 ([2]; hairpin + G4) of 20 nM.

CGTGATTAGCGATACTCACGTTGGGTGGGTGGGTGGG (ssDNA) [S1] was tested, and the IC50 ([2]; hairpin + G4) was 59 nM.

CGCCTGATTAGCGATACTCAGGCGTTTTGGGTGGGTGGGTGGG (ssDNA) [L3] gave an IC50 ([1]; hairpin + G4, T4 connector) of 13 nM.

CCGGACTCATAGCGATTAGTCCGGTTGGGTGGGTGGGTGGG (ssDNA) [Srevstem] showed an IC50 ([2]; hairpin + G4) of 26 nM.

CGCCTGATTAGCGATACTCAGGCGTTTTTTTTGGGTGGGTGGGTGGG (ssDNA) [L4] was tested, and the IC50 ([1]; hairpin + G4, T8 connector) was 28 nM.

B6: ZAM1 (ssDNA)
DNA: CGCCTGATTAGCGCGCGCCGCGTTTTCGCGGCGCGCGCTACTCAGGCGTTGGGTGGGTGGGTGGG
For B6, the IC50 ([2]; hairpin (22 bp) + G4) was 10 nM.

Source: patent publication US20090305281, “NOVEL INHIBITORS OF RETROVIRAL REVERSE TRANSCRIPTACE” (THE CURATORS OF THE UNIVERSITY OF MISSOURI, published 2009)
